Experimental data reported in patent US12710427B2, “Anti-human neurotensin receptor 1 antibody and use thereof” (National Health Research Institutes, priority 2020, dated 2026).
Positions count from the first letter of the chain named. In names and notes the source's numbering stands.

B1: h7C3-4: h7C3-3 variant with S9T and D82E in VH and K79T in VL; VH SEQ ID NO: 13, VL SEQ ID NO: 14 (antibody, V domains shown)
VH: QVQLQQPGTVLVRPGASVKLSCKASGYAFTSSWIHWAKQRPGQGLEWIGQIRPNSGNTYYNEKFKVKATLTVDTSSSTAYVELSSLTSEDSAVYYCARYHYGFDYWGQGTLVTVSS
VL: DVLMTQTPLSLPVSLGDQASISCRSSQSIVHSNGNTYLEWYLQKPGQSPKLLIYKVSNRFSGVPDRFSGSGSGTDFTLTISRVEAEDLGVYYCFQGAHLPWTFGGGTKLEIKR
modifications: VH SEQUENCE; VL SEQUENCE
B2: h7C3-3-MMAE: h7C3-3 conjugated with MMAE via cleavable valine-citrulline linker, average 3.8-4 MMAE per antibody (conjugate)
VH: B1 VH with T9S, E82D
VL: B1 VL with T79K
modifications: non-natural residues
notes: h7C3-3 conjugated with MMAE via cleavable valine-citrulline linker, average 3.8-4 MMAE per antibody

Legend:
[1] = Pharmacokinetics in mice, serum antibody by ELISA; assay type: in vivo
Protocol: The pharmacokinetics of h7C3-3 and h7C3-4 were evaluated in B6 mice. B6 mice (n=6) were administered 10 mg/kg of test material (based on the antibody component) by tail vein injection. Blood samples were collected from each mouse via the saphenous vein at hour 1, 2, and 6, and at day 1, 2, 3, 4, 7, 9, 11, 14, 16, 18, 21, 23, 25, 35 and 42 post-injection, and serum samples were collected. Plasma concentrations of h7C3-3 and h7C3-4 were measured by IgG (Total) Human ELISA Kit (Invitrogen, BMS2091).

Isoelectric point (pI) = assay type: physicochemical
A549 = test: In vitro cell cytotoxicity assay (CellTiter-Glo); assay type: cell-based
Protocol: (§1) The number of living cells were determined using the CellTiter-Glo® Luminescent Cell Viability Assay (Promega G7571). Cells were plated in 96-well opaque Costar plates (Cat number 136101). In brief, 500-2500 cells in 90 μL media were added to each well in quadruplicate and allowed to adhere for 16 hours. Anti-NTSR1 (dose range: 0-500 nM), anti-NTSR1-MMAE (dose range: 0-500 nM) or Paclitaxel (dose range: 0-100 nM) were added in […] 72-120 hours, medium was removed, and 200 μL of CellTiter-Glo® viability reagent contain culture medium (1:1) was added to each well and placed on an orbital shaker in the dark for 2 minutes. The plate was allowed to sit at RT for 10 minutes before being read on a GloMax® Explorer Multimode Microplate Reader (GM3500).

PC-3 = test: In vitro cell cytotoxicity assay (CellTiter-Glo); assay type: cell-based
Protocol: as §1

[2] = test system: H1299 lung tumor xenograft; test: H1299 lung tumor xenograft model; assay type: in vivo, nude mice
Description: (§2) Immuodeficient male NU/NU nude mice (for H1299 and PC-3 xenograft study) and male Fox Chase SCID® mice (for HA22T-Luc xenograft study) of 7-week-old purchased from BioLASCO were housed in sterilized cages equipped with an air filter and sterile bedding materials at the Laboratory Animal Center of the National Health Research Institutes (NHRI), which is an AAALAC International accredited facility. All mice were fed with sterilized water and chow ad libitum under 12-hour light/12-hour dark cycle throughout the study. On the day of tumor cell inoculation, the number of viable cells was counted by using a hemocytometer with trypan blue staining under a light microscope. Cells were suspended in phenol red-free medium [RPMI1640 (H1299) or DMEM (HA22T-Luc)] or PBS (PC-3) and Matrigel™ (356237, Matrigel® Matrix, Corning, MA, United States) in 1:1 ratio. H1299 (1×10^6 cells), HA22T-Luc (5×10^6 cells) and PC-3 (1×10^6 cells) were implanted subcutaneously into the left flank of either nude or SCID mice using a 1 mL syringe (needle 24G×1 inch). Tumor dimensions were measured with a digital caliper, and the tumor volume in mm^3 was calculated by the formula: Volume=(length×width^∧2)/2. Tumor-bearing mice were grouped (n=5-8 per group) and administered when the average tumor volume was approximately at 200 mm^3. In the 3 individual xenograft studies, human IgG (HU-GF-ED, Lot#120916DG, Molecular Innovations, MI, USA), h7C3-4, h7C3-3-MMAE and h7C3-4-MMAE were diluted in 1× Dulbecco's Phosphate Buffered Saline (02-023-5A, Biological Industries, CT, USA) freshly before dosing at concentration of 2.5 mg/ml. Cisplatin (KEMOPLAT, 1 mg/mL, 87200009AA, Fresenius Kabi, Bad Homburg, Germany) was purchased. In the H1299 xenograft study, tumor-bearing mice were divided into 5 groups (6 mice per group): Human IgG −10 mg/Kg group (negative control), Cisplatin—7 mg/Kg group (positive control), h7C3-3-MMAE —10 mg/Kg group, h7C3-4 −10 mg/Kg group and h7C3-4-MMAE −10 mg/Kg group. The mice were intravenously injected with 4 mL/Kg of dose volume by tail vein twice per week for 3 weeks, except for the Cisplatin group, which was once per week for 3 weeks. In the HA22T-Luc xenograft study, tumor-bearing mice were divided into 3 groups (8 mice per group): Human IgG −10 mg/Kg group (negative control), h7C3-3-MMAE −10 mg/Kg group and h7C3-4-MMAE (ADC) −10 mg/Kg group. The mice were intravenously injected with 4 mL/Kg of dose volume by tail vein twice per week for 2 weeks. In the PC-3 xenograft study, tumor-bearing mice were divided into 2 groups: no treatment group (5 mice) and h7C3-4-MMAE (ADC) −10 mg/Kg (8 mice). The mice in h7C3-4-MMAE −10 mg/Kg group were intravenously injected with 4 mL/Kg of dose volume by tail vein twice per week for 3 weeks. Each treatment was based on the body weight. Body weight and tumor size were measured twice weekly.
Nude mice were subcutaneously inoculated with NTSR1-expressing cells, H1299 (1×10^6 cells per mouse). When the tumors reached a volume of 200 mm^3, the tumor-bearing mice were grouped (n=6) and administered intravenously with human IgG (negative control), h7C3-3-MMAE, h7C3-4 and h7C3-4-MMAE, respectively, at 10 mg/Kg twice weekly for six doses. The Cisplatin (positive control) was administered intravenously at 7 mg/Kg weekly for three doses.

[3] = test system: HA22T-Luc liver tumor xenografts; test: HA22T-Luc liver tumor xenograft model; assay type: in vivo, SCID mice
Description: as §2
To compare the anti-tumor efficacies of h7C3-3-MMAE and h7C3-4 MMAE, an experiment was performed with 5×10^6 HA22T-luc liver cancer cells inoculated subcutaneously to SCID mice. Tumor-bearing mice were divided into 3 groups (n=8). When the tumors reached a volume of 200 mm^3, 10 mg/Kg of human IgG, h7C3-3-MMAE and h7C3-4 MMAE were administered intravenously, respectively, twice weekly for four doses.

[4] = test system: NTSR1-expressing A549 cancer cells; test: Internalization of h7C3-3 or h7C3-3-ADC in A549 cells (flow cytometry); assay type: cell-based; conditions: A549, 1 μg/ml, 37° C. for 90 minutes
Protocol: A total of 1×10^6 cells were reacted with the indicated antibody or ADC in 100 μL of FACS buffer for 60 minutes at 4° C. and washed to remove excess antibody or ADC. Cells were then transferred to 4° C. or 37° C. for 90 minutes. To determine the relative number of h7C3-3 or h7C3-3-ADC on the cell surface, cells were stained with saturating amounts of FITC (BD Pharmingen™) conjugated mouse anti-human IgG antibodies and incubated for additional 60 minutes on ice. Cells were washed again and followed by an additional incubation with 1 ml PBS containing 0.5 mg/mL propidium iodide at 4° C. for 10 minutes. Data were collected on 10,000 living cells by FACS (Bio-Red S3e cell sorter). Fluorescence intensity from channel FL-1 was calculated with Flow Jo flow cytometry analysis software. Preparation of anti-NTSR1 antibody-drug conjugates (ADCs)

NTSR1 on A549 cells = biological target: T1, NTSR1 on A549 cells (Homo sapiens, UniProt P30989); test: Flow cytometry (FACS) binding of anti-NTSR1 antibodies on A549 cells; conditions: A549 cells, one hour incubation at 4° C.
T1 construct: endogenous in cells; host or cells: A549 (NSCLC)
Protocol: A total of 1×10^6 cells were reacted with an anti-NTSR1 antibody in 100 μL of FACS buffer (PBS containing 0.5% BSA) for 60 minutes at 4° C. and washed two times to remove excess antibody. Secondary FITC (BD Pharmingen™) conjugated mouse anti-human IgG antibodies were incubated for an additional 60 minutes on ice. Cells were washed again and followed by an additional incubation with 1 ml PBS containing 0.5 mg/mL propidium iodide at 4° C. for 10 minutes. Data were collected on 10,000 living cells by FACS (Bio-Red S3e cell sorter). Fluorescence intensity from channel FL-1 was calculated with Flow Jo flow […] cytometry analysis software.

Mahlavu = test: In vitro cell cytotoxicity assay (CellTiter-Glo); assay type: cell-based
Protocol: as §1

HA22T-Luc = test: In vitro cell cytotoxicity assay (CellTiter-Glo); assay type: cell-based
Protocol: as §1

H1299 = test: In vitro cell cytotoxicity assay (CellTiter-Glo); assay type: cell-based
Protocol: as §1

HA22T = test: In vitro cell cytotoxicity assay (CellTiter-Glo); assay type: cell-based
Protocol: as §1

[5] = 10 mg/Kg i.v. twice weekly for four doses

T1 sequence (P30989 whole entry): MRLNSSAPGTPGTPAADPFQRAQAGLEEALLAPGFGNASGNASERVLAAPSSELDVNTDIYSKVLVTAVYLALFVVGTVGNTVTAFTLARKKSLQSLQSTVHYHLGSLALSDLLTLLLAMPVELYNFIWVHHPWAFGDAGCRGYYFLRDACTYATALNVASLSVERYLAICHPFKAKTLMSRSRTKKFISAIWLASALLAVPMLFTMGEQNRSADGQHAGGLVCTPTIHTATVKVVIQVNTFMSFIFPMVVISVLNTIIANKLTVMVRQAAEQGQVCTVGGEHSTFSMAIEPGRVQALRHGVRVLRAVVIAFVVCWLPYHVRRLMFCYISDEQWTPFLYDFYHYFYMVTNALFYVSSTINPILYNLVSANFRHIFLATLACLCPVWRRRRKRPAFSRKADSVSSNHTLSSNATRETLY

Row | Molecule | pharmacokinetics (overall) ([1]; 10 mg/kg) | clearance compared with h7C3-3 ([1]; single intravenous administration 10 mg/kg) | isoelectric points (pI) compared to h7C3-3 (Isoelectric point (pI)) | IC50 (A549) [nM] | IC50 (PC-3) [nM] | tumor growth (tumor volume) until/on day 35 ([2]; 10 mg/kg i.v. twice weekly for six doses) | body weight ([2]; 10 mg/kg, H1299 xenograft mice) | tumor volume on day 15 [3, 5] | tumor volume until 36 days [3, 5] | body weight ([3]; 10 mg/kg, HA22T-Luc xenograft mice) | internalization efficiency [4] | binding on cell surface (NTSR1 on A549 cells) | IC50 (Mahlavu) [nM] | IC50 (HA22T-Luc) [nM] | IC50 (H1299) [nM] | IC50 (HA22T) [nM]
1 | B1 | better pharmacokinetics | significantly improved clearance | lower | > 500 | > 500 | – | – | – | – | – | – | – | – | – | – | –
2 | B2 | – | – | – | 40.9 ± 1.63 | 21.9 ± 2.04 | partial inhibition of the tumor growth | did not show body weight loss | tumor regression | prolonged regression of tumor | did not show body weight loss | internalized efficiently | have binding efficiency on cell surface | 236 ± 6.9 | 39.4 ± 2.87 | 95.6 ± 2.02 | 36.9 ± 3.04
